Measurements as given in paper PMC3184163, “The Amino-Terminus of Nitric Oxide Sensitive Guanylyl Cyclase α1 Does Not Affect Dimerization but Influences Subcellular Localization” (PLoS ONE, 2011).

T1: nitric oxide sensitive guanylyl cyclase β1-subunit with carboxy-terminal Strep Tag II (UniProt P20595 1-619)
T1 construct: β1-subunit of nitric oxide sensitive guanylyl cyclase; PvuI/StuI fragment of the conjoined construct β1α1-Strep [27] in pFastBac1; predicted 72.2 kDa with tag; also called Strep tagged β1-subunit; source: Sf-9, recombinant baculovirus, cytosolic fraction; purified on Strep-Tactin Superflow; not shown: Strep Tag II, C-terminal, kept
T1 sequence (looked up): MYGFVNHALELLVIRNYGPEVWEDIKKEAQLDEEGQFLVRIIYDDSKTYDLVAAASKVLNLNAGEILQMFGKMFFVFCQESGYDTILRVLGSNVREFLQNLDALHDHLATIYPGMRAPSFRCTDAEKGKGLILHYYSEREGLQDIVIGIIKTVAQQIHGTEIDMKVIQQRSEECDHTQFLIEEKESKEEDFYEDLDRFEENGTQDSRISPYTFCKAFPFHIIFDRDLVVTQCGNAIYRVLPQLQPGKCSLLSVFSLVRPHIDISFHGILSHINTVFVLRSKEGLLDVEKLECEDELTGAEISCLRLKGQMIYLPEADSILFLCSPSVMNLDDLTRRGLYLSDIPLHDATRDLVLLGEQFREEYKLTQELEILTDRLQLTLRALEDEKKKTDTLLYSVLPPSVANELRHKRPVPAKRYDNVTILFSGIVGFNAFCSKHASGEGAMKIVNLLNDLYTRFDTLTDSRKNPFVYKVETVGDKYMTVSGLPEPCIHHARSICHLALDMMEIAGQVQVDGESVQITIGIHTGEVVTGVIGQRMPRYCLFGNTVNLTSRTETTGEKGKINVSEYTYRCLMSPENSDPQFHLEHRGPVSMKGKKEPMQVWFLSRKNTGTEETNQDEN

T2: nitric oxide sensitive guanylyl cyclase β1-subunit with carboxy-terminal Strep Tag II, P20595
T2 chain: T1 sequence (looked up)

B1: nitric oxide sensitive guanylyl cyclase α1-subunit, wild type (human) (natural protein, UniProt Q02108-1 1-690, looked up)
chain: MFCTKLKDLKITGECPFSLLAPGQVPNESSEEAAGSSESCKATVPICQDIPEKNIQESLPQRKTSRSRVYLHTLAESICKLIFPEFERLNVALQRTLAKHKIKESRKSLEREDFEKTIAEQAVAAGVPVEVIKESLGEEVFKICYEEDENILGVVGGTLKDFLNSFSTLLKQSSHCQEAGKRGRLEDASILCLDKEDDFLHVYYFFPKRTTSLILPGIIKAAAHVLYETEVEVSLMPPCFHNDCSEFVNQPYLLYSVHMKSTKPSLSPSKPQSSLVIPTSLFCKTFPFHFMFDKDMTILQFGNGIRRLMNRRDFQGKPNFEEYFEILTPKINQTFSGIMTMLNMQFVVRVRRWDNSVKKSSRVMDLKGQMIYIVESSAILFLGSPCVDRLEDFTGRGLYLSDIPIHNALRDVVLIGEQARAQDGLKKRLGKLKATLEQAHQALEEEKKKTVDLLCSIFPCEVAQQLWQGQVVQAKKFSNVTMLFSDIVGFTAICSQCSPLQVITMLNALYTRFDQQCGELDVYKVETIGDAYCVAGGLHKESDTHAVQIALMALKMMELSDEVMSPHGEPIKMRIGLHSGSVFAGVVGVKMPRYCLFGNNVTLANKFESCSVPRKINVSPTTYRLLKDCPGFVFTPRSREELPPNFPSEIPGICHFLDAYQQGTNSKPCFQKKDVEDGNANFLGKASGID
notes: predicted 77.6 kDa; also called α1WT; α1 full-length; source: Sf-9, recombinant baculovirus, cytosolic fraction; co-purified with β1-S on Strep-Tactin
B2: C-α1 splice variant of the nitric oxide sensitive guanylyl cyclase α1-subunit (human α1ΔN259) (domain or fragment, UniProt Q02108-1 259-690, looked up)
chain: MKSTKPSLSPSKPQSSLVIPTSLFCKTFPFHFMFDKDMTILQFGNGIRRLMNRRDFQGKPNFEEYFEILTPKINQTFSGIMTMLNMQFVVRVRRWDNSVKKSSRVMDLKGQMIYIVESSAILFLGSPCVDRLEDFTGRGLYLSDIPIHNALRDVVLIGEQARAQDGLKKRLGKLKATLEQAHQALEEEKKKTVDLLCSIFPCEVAQQLWQGQVVQAKKFSNVTMLFSDIVGFTAICSQCSPLQVITMLNALYTRFDQQCGELDVYKVETIGDAYCVAGGLHKESDTHAVQIALMALKMMELSDEVMSPHGEPIKMRIGLHSGSVFAGVVGVKMPRYCLFGNNVTLANKFESCSVPRKINVSPTTYRLLKDCPGFVFTPRSREELPPNFPSEIPGICHFLDAYQQGTNSKPCFQKKDVEDGNANFLGKASGID
notes: α1-subunit of nitric oxide sensitive guanylyl cyclase, human, amino-terminal deletion α1ΔN259; predicted 48 kDa; The name ΔN259 could also be read as loss of the first 259 residues; also called C-α1-splice form; source: Sf-9, recombinant baculovirus, cytosolic fraction; co-purified with β1-S on Strep-Tactin

Legend:
[1] = biological target: T1, nitric oxide sensitive guanylyl cyclase …; experiment: pull-down; co-purification: α1 variant expressed with carboxy-terminally Strep Tag II tagged β1 in Sf-9; cytosolic fraction applied to Strep-Tactin Superflow resin; buffer W 100 mM Tris-HCl, 1 M NaCl, 1 mM EDTA, 1 mM benzamidine, 10 mM DTT, pH 8.0; eluted with 2.5 mM D-desthiobiotin; on ice or at 4°C; SDS-PAGE, Coomassie staining, densitometry; cells also cultured without supplement, with hemin (4 mg/l), or with …; conditions: partners not purified
[2] = biological target: T2, nitric oxide sensitive guanylyl cyclase …; experiment: pull-down; co-purification: α1 variant expressed with carboxy-terminally Strep Tag II tagged β1 in Sf-9; cytosolic fraction applied to Strep-Tactin Superflow resin; buffer W 100 mM Tris-HCl, 1 M NaCl, 1 mM EDTA, 1 mM benzamidine, 10 mM DTT, pH 8.0; eluted with 2.5 mM D-desthiobiotin; on ice or at …

Binder | ratio of band intensities of the α1 variant to β1 [1] | relative heterodimerization by densitometry (% of α1WT) [2]
B1 | 0.43 | 
B2 | 0.75 | 166.2 % (±12.2 %)
